# Data taken from US8753698B2, “Anti-hypertensive functional food products” (Globus Egg Sciences B.V., priority 2004, dated 2014).
# Columns and labels:
# [1] = biological target: Angiotensin-I Converting Enzyme (ACE) (Homo sapiens, UniProt P12821); assay: Determination of ACE inhibitory activity of hydrolysates in a microtiter plate (Hip-His-Leu substrate); type: biochemical; conditions: no digestion simulation, in %
# Method: ACE inhibitory activity can be measured in vitro using a spectrophotometry based assay. The assay is based on the liberation of hippuric acid from Hip-His-Leu substrate catalyzed by ACE.
# Calculation of Ace Inhibition:
# [formula] 2.4 Further (Optimized) Hydrolysis of Ovomucin with Alcalase Protocol for the DH Determination by TNBS Method Solutions: • 0.21 M Sodium phosphate buffer pH8.2 • 0.21 M NaH2PO4.H2O (25 ml solution) • 0.21 M Na2HPO4.2H2O (500 ml solution) • mix solutions to pH 8.2 • 0.05% TNBS • Dilute TNBS stock (5% solution) to 0.05% in MQ cover reagent tube with aluminium foil and store in dark place • 1% SDS solution • Leucine standard (stock 3 mM Leucine) • Dissolve Leucine in 1% SDS solution. Dilute the stock solution 20×, 10×, 4× en 2× with 1% SDS for analysis • Blank • Dilute non-hydrolysed sample in 1% SDS to a protein concentration of 0.5 mg/ml • Samples • Dilute hydrolysed protein in 1% SDS to a concentration of 0.5 mg/ml in duplo Analysis: • Pipet 15 μl sample (Leucine standard or sample) in microwell. Measure each dilution in twofold in plate (Costar, non-binding plate) • Add 45 μl 0.21 M sodium phosphate buffer pH 8.2 • Add 45 μl 0.05% TNBS. Cover plate with aluminium foil. Incubate plate for 60 minutes in a 50° C. stove. • After incubation add 90 μl 0.1 N HCl • Measure absorption at 340 nm (microplate reader) Calculation of degree of hydrolysis (DH): • Make calibration line of Leucine standard. This calibration line is used to convert absorption values of samples to NH2-equivalents.
# plasma ACE activity = biological target: T1, plasma ACE activity (Rattus norvegicus, UniProt P47820); assay: Acute oral treatment of anaesthetized SHR, plasma ACE activity; type: in vivo; conditions: single oral dose 1000 mg/kg
# T1 construct: effects of acute oral treatment of anaesthetized SHR with lysozym/alcalase on blood pressure and plasma ACE activity; from tissue; host or cells: blood plasma of SHR rats
# T1 sequence (P47820 36-1313): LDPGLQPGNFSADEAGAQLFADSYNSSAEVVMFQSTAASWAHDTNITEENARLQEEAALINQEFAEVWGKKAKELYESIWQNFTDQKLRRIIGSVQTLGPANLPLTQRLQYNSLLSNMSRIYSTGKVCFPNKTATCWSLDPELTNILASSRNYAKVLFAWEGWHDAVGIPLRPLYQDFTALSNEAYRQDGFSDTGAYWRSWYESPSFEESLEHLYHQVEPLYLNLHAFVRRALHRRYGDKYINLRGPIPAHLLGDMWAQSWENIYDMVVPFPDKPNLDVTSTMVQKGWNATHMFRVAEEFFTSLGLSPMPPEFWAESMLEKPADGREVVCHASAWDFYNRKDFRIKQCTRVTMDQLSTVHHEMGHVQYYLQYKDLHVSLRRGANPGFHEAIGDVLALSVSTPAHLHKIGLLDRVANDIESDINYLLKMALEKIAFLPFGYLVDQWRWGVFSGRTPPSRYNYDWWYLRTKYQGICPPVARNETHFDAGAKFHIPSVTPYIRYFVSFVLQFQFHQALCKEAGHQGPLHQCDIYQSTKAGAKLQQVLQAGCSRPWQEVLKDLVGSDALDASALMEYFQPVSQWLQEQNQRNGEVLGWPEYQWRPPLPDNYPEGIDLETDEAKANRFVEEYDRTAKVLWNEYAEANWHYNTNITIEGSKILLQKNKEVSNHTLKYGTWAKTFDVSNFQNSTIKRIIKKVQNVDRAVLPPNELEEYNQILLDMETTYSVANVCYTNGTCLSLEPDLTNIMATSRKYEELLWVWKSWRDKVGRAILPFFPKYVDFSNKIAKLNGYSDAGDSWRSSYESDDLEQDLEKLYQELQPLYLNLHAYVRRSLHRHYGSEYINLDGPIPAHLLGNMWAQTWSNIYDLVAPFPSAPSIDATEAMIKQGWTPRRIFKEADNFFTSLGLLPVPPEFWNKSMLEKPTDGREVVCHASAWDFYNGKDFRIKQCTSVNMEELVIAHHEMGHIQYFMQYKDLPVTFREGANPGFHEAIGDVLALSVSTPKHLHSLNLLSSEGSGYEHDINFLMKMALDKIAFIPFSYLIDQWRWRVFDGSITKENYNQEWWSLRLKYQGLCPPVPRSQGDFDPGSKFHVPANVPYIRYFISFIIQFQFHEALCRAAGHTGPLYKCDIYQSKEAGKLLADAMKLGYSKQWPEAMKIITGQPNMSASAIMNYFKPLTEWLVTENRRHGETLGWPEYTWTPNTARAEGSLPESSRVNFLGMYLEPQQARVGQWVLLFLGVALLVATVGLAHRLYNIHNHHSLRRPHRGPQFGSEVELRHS
# Method: (§1) This study was performed to establish the effects of acute oral treatment of anaesthetized SHR with lysozym/alcalase on blood pressure and plasma ACE activity.
# (§2) Surgery: At the day of the experiment, rats were anaesthetized and the carotid artery was cannulated for measurement of blood pressure. In addition to that, the jugular vein was cannulated to allow blood sampling for measurement of plasma ACE activity.
# (§3) Protocol: At timepoint t=0, rats were administered the study drugs by means of oral gavage using a gastric tube. Blood samples were drawn immediately prior to gavage at t=0, as well as at t=0.5, t=1, t=2, t=3, t=4, t=5 and t=6 hr thereafter. Blood pressure was recorded (mean value every 10 min) throughout the 6 hr study period;
# (§4) Study drugs: Rats were randomly administered either lysozym/alcalase or lysozym (both 1000 mg/kg; dissolved in 1 ml drinking water), or water only.
# SHR rats = assay: Acute oral treatment of anaesthetized SHR, blood pressure; type: in vivo, rat; conditions: single oral dose 1000 mg/kg, percentage change from baseline
# Method: as §1
# Rats: SHR rats (382-440 g) were purchased via Harlan, Horst, The Netherlands from Harlan, Oxon, United Kingdom.
# as §2, §3, §4
# Angiotensin-I Converting Enzyme (ACE), sequence (P12821 30-1306, species assumed): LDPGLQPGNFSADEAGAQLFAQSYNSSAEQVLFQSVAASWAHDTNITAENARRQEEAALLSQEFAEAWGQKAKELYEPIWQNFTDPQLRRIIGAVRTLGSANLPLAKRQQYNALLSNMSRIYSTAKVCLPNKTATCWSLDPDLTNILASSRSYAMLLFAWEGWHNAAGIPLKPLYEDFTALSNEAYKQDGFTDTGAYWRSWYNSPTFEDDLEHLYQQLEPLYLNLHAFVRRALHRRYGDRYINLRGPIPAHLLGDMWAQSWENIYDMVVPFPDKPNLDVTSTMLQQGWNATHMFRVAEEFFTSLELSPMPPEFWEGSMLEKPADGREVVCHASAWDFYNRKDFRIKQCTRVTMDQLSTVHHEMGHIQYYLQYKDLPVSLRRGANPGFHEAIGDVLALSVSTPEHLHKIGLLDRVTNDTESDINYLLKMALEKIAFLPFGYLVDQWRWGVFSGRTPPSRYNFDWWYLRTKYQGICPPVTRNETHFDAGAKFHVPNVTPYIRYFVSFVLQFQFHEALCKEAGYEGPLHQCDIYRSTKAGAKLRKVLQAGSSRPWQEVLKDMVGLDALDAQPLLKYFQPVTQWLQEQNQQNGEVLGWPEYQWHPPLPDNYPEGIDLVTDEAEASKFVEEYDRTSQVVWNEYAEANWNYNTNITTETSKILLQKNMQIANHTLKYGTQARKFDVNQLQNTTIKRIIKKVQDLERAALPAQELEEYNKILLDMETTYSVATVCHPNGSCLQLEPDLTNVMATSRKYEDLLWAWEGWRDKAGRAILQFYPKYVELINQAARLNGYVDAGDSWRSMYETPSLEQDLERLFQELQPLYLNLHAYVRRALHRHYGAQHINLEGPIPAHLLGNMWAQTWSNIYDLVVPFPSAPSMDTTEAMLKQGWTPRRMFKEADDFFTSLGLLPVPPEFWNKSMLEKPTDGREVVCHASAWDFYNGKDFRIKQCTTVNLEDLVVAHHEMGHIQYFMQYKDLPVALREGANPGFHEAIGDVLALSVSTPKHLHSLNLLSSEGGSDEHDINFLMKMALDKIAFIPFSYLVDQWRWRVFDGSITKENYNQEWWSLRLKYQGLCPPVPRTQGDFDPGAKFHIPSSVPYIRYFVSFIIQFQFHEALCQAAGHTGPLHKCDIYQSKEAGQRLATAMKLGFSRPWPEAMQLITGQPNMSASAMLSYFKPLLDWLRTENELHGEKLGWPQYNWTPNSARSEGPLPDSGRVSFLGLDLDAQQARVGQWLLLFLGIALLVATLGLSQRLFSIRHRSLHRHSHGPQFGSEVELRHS
Substance,ACE inhibition ([1]; conc. 0.019 mg/ml),ACE inhibition ([1]; conc. 0.056 mg/ml),ACE inhibition ([1]; conc. 0.167 mg/ml),ACE inhibition ([1]; conc. 0.500 mg/ml),maximal decrease (inhibition) of plasma ACE activity from baseline (plasma ACE activity),maximal reduction in SBP (SHR rats)
"Lys UM: lysozyme, not pre-hydrolysed, nor in vitro digested; control in SHR studies",0.1,1.3,−4.7,2.6,approx. 10%,approx. 15%
"OM-UM: ovomucin, not pre-hydrolysed, nor in vitro digested",−0.4,5.2,2.2,2.1,,
